# Experimental data reported in IntAct's records for PubMed 9653157.
# B1: Cell division control protein 18 (Schizosaccharomyces pombe (strain ATCC 38366 / 972)), P41411 (parent)
# chain: MCETPIGCHTPRRCNRFIDSAALIDCTNKTNQREHSPSFSIEIPTTPSRKRTLASSHFQTPTKRIKYELGELQEEKTDLYPNFPAQLKENKKPKLPTTPQTPKTPKRTIQIVTPKSLNRTCNPVPFATRLLQSTPHRQLFPPTPSTPSTPSYNSTAKLSLRKSYRSAGVVGRENEKSIVESFFRQHLDANAGGALYVSGAPGTGKTVLLHNVLDHVVSDYPKVNVCYINCMTINEPKAIFEKIHSKIVKEEILENEDHHINFQCELESHFTQSANELYNPVIIVLDEMDHLIAREQQVLYTLFEWPSRPTSRLILVGIANALDMTDRFLPRLRTKHITPKLLSFTPYTAQEISTIIKARLKTAATTSEKNNPFTPIKSISEVSDDSINVVSQHADETPFIHPAAIELCARKVAASSGDLRKALDICRHAIELAEREWKAQHDNTLSSVDIPRASIAHVVRATSAMSQSASARLKNLGLQQKAILCTLVVCEKTSLSVADVFEKYSSLCLRDRLIYPLTSSEFCDVANSLETLAIIRLRTKQRNGKPQDRIISLLVPEMDVITAVGDIGTLKRFFDRR
# partner: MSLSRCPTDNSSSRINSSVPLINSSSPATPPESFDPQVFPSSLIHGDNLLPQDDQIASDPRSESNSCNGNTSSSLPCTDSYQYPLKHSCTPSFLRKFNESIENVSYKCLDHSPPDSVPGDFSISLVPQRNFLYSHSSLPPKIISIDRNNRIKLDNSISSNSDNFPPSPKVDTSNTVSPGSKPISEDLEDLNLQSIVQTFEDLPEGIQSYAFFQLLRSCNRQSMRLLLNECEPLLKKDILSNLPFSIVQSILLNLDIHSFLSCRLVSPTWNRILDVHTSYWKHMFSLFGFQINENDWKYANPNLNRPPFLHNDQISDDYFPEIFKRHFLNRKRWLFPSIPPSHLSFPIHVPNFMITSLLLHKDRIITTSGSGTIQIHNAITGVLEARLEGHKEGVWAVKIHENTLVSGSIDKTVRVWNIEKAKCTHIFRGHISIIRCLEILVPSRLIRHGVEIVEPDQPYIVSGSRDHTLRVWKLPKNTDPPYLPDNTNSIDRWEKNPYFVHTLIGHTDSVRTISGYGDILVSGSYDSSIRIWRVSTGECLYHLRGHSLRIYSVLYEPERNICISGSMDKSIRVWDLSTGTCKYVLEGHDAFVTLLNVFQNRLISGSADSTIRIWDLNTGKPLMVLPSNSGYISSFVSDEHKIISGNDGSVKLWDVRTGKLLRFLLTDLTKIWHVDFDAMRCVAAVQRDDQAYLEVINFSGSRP
# Variants of: B1
# Details: with pop2_schpo pop2, O14170
row,effect of a mutation on the interaction,Variant
1,disrupting interaction,T4A;T10A;T46A;T60A;T101A;T104A
